Paper PMC11376147 (Chemical Science, 2024)

Biological target: SARS-CoV-2 Spike glycoprotein (SARS-CoV-2) (UniProt P0DTC2)
Assay: SPR

Question: “DC-SIGN entire extracellular domain (ECD) (from UniProt Q9NNX6 59-404) (receptor)” was tested. Which SPR response without ligand (the pair that is blocked) did it give?
Answer: 2500 RU

Question: For “L-SIGN entire extracellular domain (ECD) (from UniProt Q9H2X3 71-399) (receptor)”, which SPR response without ligand (the pair that is blocked) is on record?
Answer: 2000 RU
